Results reported in patent US20050221459.

Tests used:
[1] = system: Ras-CVLS (SEQ ID NO: 3)
[2] = system: Ras-CVLL (SEQ ID NO: 4)

Substance	Turnover numbers under the optimal substrate concentrations [1]	substrate specificity characterized by enzymatic assays [1]	Turnover numbers under the optimal substrate concentrations [2]
W102T mutant of human FTase (W102β converted to threonine)	0.59 min⁻¹	creating an FTase enzyme greatly preferring GGPP over FPP as its isoprenoid substrate without significantly altering Ca1a2X sequence specificity	
Human protein farnesyltransferase (hFTase)	1 min⁻¹		
Wild-type GGTase-I used in the prenylation assay of Example 3			0.65 min⁻¹
